From the RNAGym collection of RNA variant scans (doi:10.7554/elife.80360) come the findings set out here.

To fix the notation:
B1: HDV Ribozyme (parent)
chain: GGCCGGCAUGGUCCCAGCCUCCUCGCUGGCGCCGGCUGGGCAACAUUCCGAGGGGACCGUCCCCUCGGUAAUGGCGAAUGGGACCCA

The variants in this data set derive from B1. The data set is described as follows: self-cleavage, relative activity (ratio to wild type); higher = more cleavage; co-transcriptional.
Turning to U23A C26U, the self-cleavage worked out at 1.08.
To C24U G81U belongs 0.169; to C7G G55A, 0.302; to G28C A51U, 0.156.
On to C18G C33G, for which the self-cleavage stood at 0.119.
Consider C14G U79C, for which the self-cleavage came out at 0.173.
For the variant G5U C7A, the self-cleavage amounted to 0.566.
C7G U27G: the self-cleavage was 0.256.
As to U37C C86A, the self-cleavage turned out to be 0.974.
On to G17U U47C, for which the self-cleavage was 0.298.
Regarding G40U A87U, the self-cleavage was 0.667.
A56G C63U: the self-cleavage was 0.682.
A8U U79A: the self-cleavage stood at 0.525.
For G6A G17A, the self-cleavage is 0.318.
With G59U C75A, the self-cleavage worked out at 0.0314.
A16C G29U: the self-cleavage worked out at 0.0755.
Consider G10U G76U, for which the self-cleavage was 1.14.
To A71G G74C belongs 0.383; to U9C C33A, 0.489.
For G35U U79A, the self-cleavage worked out at 0.166.
A42U U47G: the self-cleavage was 0.615.
Regarding U9G G52A, the self-cleavage came out at 0.712.
As to U9G G52C, the self-cleavage stood at 0.95.
To U37A C63U belongs 0.339; to G11U G82U, 0.138.
On to A42U A56G, for which the self-cleavage amounted to 0.306.
G10C G29C: the self-cleavage is 0.155.
With G52U U69A the figure was 1.09; with C64A A77G, 0.703; with G38A A51G, 0.141.
With C4G U23C the figure was 0.208.
Take U20G G29C: the self-cleavage was 0.
Regarding U20G G29U, the self-cleavage was 0.
Consider C41G C44A, for which the self-cleavage came out at 0.192.
C22U A70C: the self-cleavage worked out at 0.656.
C48U C58G: the self-cleavage worked out at 1.06.
With G50C C61A, the self-cleavage turned out to be 0.865.
In the case of U60A U79G, the self-cleavage turned out to be 0.807.
For the variant U37G C86U, the self-cleavage was determined as 0.249.
Consider C3A G28A, for which the self-cleavage came to 0.0138.
For C49A G82U, the self-cleavage turned out to be 0.437.
To A8C G53U belongs 0.831.
For the variant U47A G80A, the self-cleavage came to 0.277.
As to A71C G76C, the self-cleavage worked out at 0.848.
Regarding U23A G28C, the self-cleavage worked out at 0.142.
To G50U C84U belongs 0.665.
Take G2C C63G: the self-cleavage came out at 0.0314.
In the case of A56G U79A, the self-cleavage came to 0.277.
With C26U G35A the figure was 0.876; with G10C C14G, 0.312; with A43U C61A, 0.532.
Consider C32G C44G, for which the self-cleavage amounted to 0.0426.
Regarding C32A C64A, the self-cleavage came to 0.166.
On to G6C C58U, for which the self-cleavage was determined as 0.394.
For the variant U9C C36A, the self-cleavage came to 0.178.
For C24G G74C, the self-cleavage is 0.109.
As for G34U U37A, the self-cleavage was determined as 0.158.
Regarding G17U A87U, the self-cleavage came out at 0.548.
Turning to G59C G81C, the self-cleavage was 0.261.
To C3G U69C belongs 0.653; to U23A G35C, 0.212.
In the case of C41G G59U, the self-cleavage worked out at 0.969.
Consider G2U C4A, for which the self-cleavage worked out at 0.
Take C21A G81U: the self-cleavage stood at 0.0665.
Turning to U9G C66A, the self-cleavage was found to be 0.594.
For G29U G52U, the self-cleavage is 0.0875.
With A43U A83U, the self-cleavage turned out to be 0.125.
Consider G25C C49A, for which the self-cleavage was found to be 0.0594.
To U20G G74C belongs 0.0489.
For the variant U27C A70C, the self-cleavage is 0.604.
Consider C18U C21A, for which the self-cleavage is 0.115.
For the variant G10A A87G, the self-cleavage came to 0.857.
Take U47A C86G: the self-cleavage came out at 0.733.
With G1A C33G, the self-cleavage is 0.148.
For the variant G1A C33A, the self-cleavage is 0.0554.
For the variant G2A A78G, the self-cleavage was 0.0504.
As for U72A C84U, the self-cleavage is 0.578.
Regarding U20G C49U, the self-cleavage is 0.185.
Regarding A51G G55C, the self-cleavage was 0.481.
Regarding G52U C75G, the self-cleavage came out at 0.297.
As for C21U U46A, the self-cleavage came out at 0.511.
As to G76A A83U, the self-cleavage came out at 0.875.
For G17C U20G, the self-cleavage was 0.128.
Regarding C63U A77U, the self-cleavage is 0.698.
Take C30U C85U: the self-cleavage was 0.787.
Regarding C4U C13G, the self-cleavage worked out at 0.0449.
With G25C C86G the figure was 0.332; with U46A U60C, 0.752; with A56C A77G, 1.02.
Turning to C18A U23G, the self-cleavage was 0.155.
To C24G C57U belongs 0.14; to G17A C41U, 0.46; to U12G G34C, 0.172.
Consider G34U G50U, for which the self-cleavage was 0.191.
In the case of G34A G80A, the self-cleavage came out at 0.0241.
Consider C7A A43U, for which the self-cleavage is 0.0386.
For C14U C18U, the self-cleavage came to 0.591.
In the case of C4A G5U, the self-cleavage turned out to be 0.122.
To C22A G67C belongs 0.337; to C49G C57U, 0.945; to C36G G39C, 0.232.
For C15A U37G, the self-cleavage turned out to be 0.0755.
Turning to G1C C24U, the self-cleavage was 0.0489.
In the case of C4A C22A, the self-cleavage is 0.0332.
For C44A G67U, the self-cleavage was determined as 0.658.
Take C58U A78G: the self-cleavage turned out to be 0.77.
On to G1A C49G, for which the self-cleavage is 0.166.
For C57A C62A, the self-cleavage came to 0.997.
As for A16U C24A, the self-cleavage was found to be 0.482.
G25U C33A: the self-cleavage came to 0.156.
Consider G53U C61U, for which the self-cleavage was found to be 0.994.
On to U37C C63U, for which the self-cleavage is 1.11.
Consider C21A A77C, for which the self-cleavage was 0.
As to G53A G54U, the self-cleavage was 0.962.
On to C26A G28U, for which the self-cleavage was 0.222.
Take U65C A78G: the self-cleavage turned out to be 0.731.
To U9G C64U belongs 0.86; to G34U G68A, 0.274; to C64G U65A, 0.799.
For the variant C14A U72C, the self-cleavage came out at 0.378.
In the case of C13A C21G, the self-cleavage was 0.0332.
To A8G A77C belongs 0.277; to C19U G76A, 0.197; to C48A U65A, 0.845.
For G11C U47A, the self-cleavage turned out to be 0.151.
For the variant C18G C75G, the self-cleavage was 0.229.
Turning to G54U G55U, the self-cleavage stood at 0.921.
Regarding A83U C86G, the self-cleavage stood at 0.361.
To C41G A70G belongs 0.929; to C63G C64G, 0.692.
For A42C C75G, the self-cleavage came to 0.0852.
Take C24G G35C: the self-cleavage was determined as 0.0332.
G1C G38C: the self-cleavage was found to be 0.
As to A16G C26A, the self-cleavage was 0.867.
On to G40C A71C, for which the self-cleavage was 0.121.
With G34C G52A the figure was 0.17; with C57A G80U, 0.253; with U47G U69A, 1.27.
With G68A U79G the figure was 0.584.
C15A C57A: the self-cleavage was determined as 0.764.
Take G31C U79A: the self-cleavage was determined as 0.17.
As for A56G U65C, the self-cleavage is 1.05.
For G28U G50A, the self-cleavage was 0.0791.
In the case of U12A U60G, the self-cleavage stood at 0.
Consider G2U G17C, for which the self-cleavage was 0.0228.
With G54A C85A the figure was 0.917.
To U47C U60C belongs 1.05.
With U47A U79A the figure was 0.598; with U60A G81C, 0.0811.
U27A C41G: the self-cleavage is 0.858.
To C66A C86G belongs 1.12; to G53U C62A, 0.901; to C41U G76U, 0.897.
Turning to U9C G67A, the self-cleavage was determined as 1.12.
Consider G40C C44A, for which the self-cleavage was 0.0468.
With G11A U65G the figure was 0.305.
As to G11C G28A, the self-cleavage was determined as 0.0225.
Take C30U G80U: the self-cleavage worked out at 0.116.
In the case of C26U A45C, the self-cleavage came to 0.776.
As to C4G C24U, the self-cleavage is 0.193.
For the variant U27A A51G, the self-cleavage was found to be 0.997.
Turning to C13A A45C, the self-cleavage turned out to be 0.0707.
With C61U C64G, the self-cleavage stood at 0.308.
Turning to C44U A78C, the self-cleavage is 0.113.
For G74U A77U, the self-cleavage was 0.346.
With G6C C57G, the self-cleavage amounted to 0.396.
For the variant A51C U79C, the self-cleavage was 0.447.
